Assay [1] concerns the target T1, IL-13RA2 huFc (human).
T1 construct: Expressed in 293F cells, purified on protein A; also called human IL13RA2; recombinant IL-13RA2
The assay can be described thus: SPR (Biacore T200), nickel-purified scFv. As to the method: IL-13RA2 huFc was coated on the CMS chip by amino coupling, coated to about 500 RU, and the gradiently diluted antibodies were passed through the antigen-coated channel at a flow rate of 30 ul/min as a mobile phase. The running buffer was HBS-N and the temperature was 25° C. The experimental data was analyzed by BIAevaluation 3.2 and the kinetic curves were fitted using a 1:1 langmuir model.
Affinity purification was performed using a nickel column, affinity was measured using biacore T200, and the association and dissociation constants of the affinity matured antibodies are shown as in FIG. 10A.
For orientation: Surface plasmon resonance follows binding to a sensor surface in real time, without labels.

In assay [2] the target is T1, IL-13RA2 huFc. As to the kind of experiment: SPR (Biacore), induced scFv supernatant; column head: Dissociation constant Kd(S-1).
The target of assay [3] is T1, IL-13RA2 huFc. As to the kind of experiment: Biacore, induced supernatant of the scFv clone; parent 31C2.
Assay [4] deals with T2, IL-13RA1_huFc (human).
T2 construct: IL-13RA1 extracellular segment, 'GS', Fc segment Asp104-Lys330 of the human IgG1 heavy chain constant region; also called human IL13RA1
As to the kind of experiment: ELISA by the method of Example 3, antibody concentration not given; bars assigned by their order in the legend. As to the method:
(§1) The species specificity of antibodies 31C2 and 32H4 was determined by standard ELISA. Murine IL-13RA2 was purchased from Sino Biological Inc. The ELISA plate was coated with 100 ul of 5 ug/ml murine IL-13RA2 per well at 4° C. overnight. The coated ELISA plate was washed with PBS three times. 200 ul solution of 2% skim milk powder in PBS per well was added for blocking at room temperature for 1 hour. The plate was washed with PBS three times. The gradiently diluted antibodies with a starting concentration of 10 μg/ml, 3-fold serially diluted, were added and incubated at room temperature for 1 hr. The mixture was washed with PBST three times and washed with PBS three times. HRP-labeled goat anti-human Fc was added and incubated at room temperature for 1 hour. The mixture was washed with PBST three times and washed with PBS three times. After TMB was added for color development for 15 minutes, and the reaction was stopped by the addition of sulfuric acid, and read on a microplate reader.
(§2) The specificity of the antibodies 5D7, 2C7, 5G3, 2D4, 2D3 and 1B11 was determined by standard ELISA following the method of Example 3. The results were shown as in FIG. 10B.
In general terms: ELISA stands for enzyme-linked immunosorbent assay.

Assay [5] has as its target T3, Murine IL-13RA2 (murine, UniProt O88786 22-334, limits assumed).
T3 construct: Bought recombinant protein; coated on the ELISA plate at 5 ug/ml
T3 sequence (looked up): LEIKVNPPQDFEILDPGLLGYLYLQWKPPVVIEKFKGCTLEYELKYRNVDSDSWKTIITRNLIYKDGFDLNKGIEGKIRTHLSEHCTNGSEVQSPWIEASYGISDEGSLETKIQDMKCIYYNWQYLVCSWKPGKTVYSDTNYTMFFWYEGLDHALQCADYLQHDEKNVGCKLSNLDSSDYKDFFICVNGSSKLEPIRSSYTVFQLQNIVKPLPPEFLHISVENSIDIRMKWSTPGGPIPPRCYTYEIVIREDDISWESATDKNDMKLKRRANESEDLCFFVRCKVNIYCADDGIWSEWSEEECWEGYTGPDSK
Described as above. As to the method:
as §1, §2

For assay [6], the target named is T1, IL-13RA2 huFc. As to the kind of experiment: Biacore, induced supernatant of the scFv clone; parent 32H4.

Some results are limits rather than exact numbers.

T1 sequence (chain, as listed by the source limits assumed): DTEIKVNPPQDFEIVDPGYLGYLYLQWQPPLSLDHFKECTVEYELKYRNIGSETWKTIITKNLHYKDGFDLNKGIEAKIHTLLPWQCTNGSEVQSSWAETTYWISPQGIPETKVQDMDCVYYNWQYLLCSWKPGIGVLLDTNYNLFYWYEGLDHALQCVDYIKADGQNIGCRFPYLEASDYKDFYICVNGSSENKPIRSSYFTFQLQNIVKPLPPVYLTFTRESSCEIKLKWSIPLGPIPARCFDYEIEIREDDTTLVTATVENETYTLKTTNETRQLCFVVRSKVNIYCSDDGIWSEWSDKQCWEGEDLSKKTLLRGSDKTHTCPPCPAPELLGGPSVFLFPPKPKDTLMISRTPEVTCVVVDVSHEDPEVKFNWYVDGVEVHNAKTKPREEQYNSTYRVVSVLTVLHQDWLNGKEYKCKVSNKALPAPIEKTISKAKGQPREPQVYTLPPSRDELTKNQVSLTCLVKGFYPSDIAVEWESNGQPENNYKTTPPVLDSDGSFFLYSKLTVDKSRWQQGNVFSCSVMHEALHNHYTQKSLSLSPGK
T2 sequence (chain, as listed by the source limits assumed): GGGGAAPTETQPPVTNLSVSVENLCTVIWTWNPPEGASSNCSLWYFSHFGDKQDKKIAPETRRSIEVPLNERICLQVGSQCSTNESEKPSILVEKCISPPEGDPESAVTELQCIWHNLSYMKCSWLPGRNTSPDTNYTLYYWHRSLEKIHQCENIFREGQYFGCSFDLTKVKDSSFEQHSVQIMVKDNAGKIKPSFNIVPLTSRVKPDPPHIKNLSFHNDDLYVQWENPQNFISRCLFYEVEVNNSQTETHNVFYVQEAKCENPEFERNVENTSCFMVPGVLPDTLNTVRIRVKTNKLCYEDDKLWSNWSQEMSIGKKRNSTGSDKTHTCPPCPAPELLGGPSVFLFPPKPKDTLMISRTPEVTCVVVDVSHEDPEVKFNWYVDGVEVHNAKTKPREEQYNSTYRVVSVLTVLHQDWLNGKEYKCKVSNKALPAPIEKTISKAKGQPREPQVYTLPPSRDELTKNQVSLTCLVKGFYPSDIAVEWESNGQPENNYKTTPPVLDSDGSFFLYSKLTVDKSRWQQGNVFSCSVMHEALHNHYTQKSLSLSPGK

B1: 1B11 (scFv) (scFv)
scFv: EVQLLESGGGLVQPGGSLRLSCAASGFTFSRDALNWVRQAPGKGLEWVSAISGSGGSTFYADSVKGRFTISRDNSKNTLYLQMNSLRAEDTAVYYCAKVRYGWGAGAFDYWGQGTLVTVSSGGGGSGGGGSGGGGSDIQMTQSPSTLSASVGDRVTITCRASQSISSWLAWYQQKPGKAPKLLIYDASSLESGVPSRFSGSGSGTEFTLTISSLQPDDFATYYCQQYDTYPPITFGQGTKVEIK
notes: also called clone 1B11
For B1, the dissociation constant Kd (in general, the equilibrium constant for the complex coming apart) in assay [1] stood at 17.5 nM. In addition, the values for the koff in assay [1] and in assay [2] were 0.000803 s⁻¹ and 0.000736 s⁻¹, respectively. Moreover, in assay [1], the kon (as a rule, the rate constant with which the complex forms) was 46000 M⁻¹ s⁻¹. Further, in assay [3], the “fold lower dissociation constant Kd than the parent clone” value was above 10 times. Besides, the binding result is listed as “no binding” in assay [4] and “binds” in assay [5].

B2: 2D4 (scFv) (scFv)
scFv: EVQLLESGGGLVQPGGSLRLSCAASGFTFRKYAMGWVRQAPGKGLEWVSGISGSVGSTYYADSVKGRFTISRDNSKNTLYLQMNSLRAEDTAVYYCAKVRYGWGAGAFDYWGQGTLVTVSSGGGGSGGGGSGGGGSDIQMTQSPSTLSASVGDRVTITCRASQSISSWLAWYQQKPGKAPKLLIYDASSLESGVPSRFSGSGSGTEFTLTISSLQPDDFATYYCQQYDTYPPITFGQGTKVEIK
notes: also called clone 2D4
B2: in assay [1], the Kd was found to be 8.92 nM, the koff (usually a measure of how fast the partners let go of each other) is 0.000745 s⁻¹ and the kon turned out to be 83500 M⁻¹ s⁻¹. The molecule also had a koff in assay [2] of 0.000837 s⁻¹. Besides, the “fold lower dissociation constant Kd than the parent clone” value in assay [3] is above 10 times. In assay [4], the binding result is recorded as “no binding”. Moreover, the binding result in assay [5] is recorded as “binds”.

B3: 5D7 (scFv) (scFv)
scFv: EVQLLESGGGLVQPGGSLRLSCAASGFTFSNYAMSWVRQAPGKGLEWVSGIRSSGGRTFYADSVKGRFTISRDNSKNTLYLQMNSLRAEDTAVYYCARVAFSGSFDYWGQGTLVTVSSGGGGSGGGGSGGGGSDIQMTQSPSTLSASVGDRVTITCRASQSISSWLAWYQQKPGKAPKLLIYDASSLESGVPSRFSGSGSGTEFTLTISSLQPDDFATYYCQQRNRYPPTFGQGTKVEIK
notes: also called clone 5D7
Regarding B3, in assay [1], the Kd turned out to be 5.4 nM, the koff came out at 0.000443 s⁻¹ and the kon stood at 82200 M⁻¹ s⁻¹. The same molecule displayed a koff in assay [2] of 0.00154 s⁻¹. In assay [6], the “fold lower dissociation constant Kd than the parent clone” value was above 10 times.

B4: 5G3 (scFv) (scFv)
scFv: EVQLLESGGGLVQPGGSLRLSCAASGFTFSSYVLSWVRQAPGKGLEWVSAIRGSAGNTYYADSVKGRFTISRDNSKNTLYLQMNSLRAEDTAVYYCARVAFSGSFDYWGQGTLVTVSSGGGGSGGGGSGGGGSDIQMTQSPSTLSASVGDRVTITCRASQSISSWLAWYQQKPGKAPKLLIYDASSLESGVPSRFSGSGSGTEFTLTISSLQPDDFATYYCQQRNRYPPTFGQGTKVEIK
notes: also called clone 5G3
Consider B4, for which, in assay [1], the Kd was 8.34 nM, the koff came out at 0.000586 s⁻¹ and the kon is 70300 M⁻¹ s⁻¹. Also, the koff in assay [2] turned out to be 0.000941 s⁻¹. For the same molecule, the “fold lower dissociation constant Kd than the parent clone” value in assay [6] was above 10 times.
